According to patent publication US20040253673A1:

Key:
[1] = biological target: Crotalus durissus terrificus (C.d.t.) venom; test: ELISA, C.d.t. venom coat, 1:5
[2] = biological target: Crotalus durissus terrificus (C.d.t.) venom; test: ELISA, C.d.t. venom coat, 1:25
[3] = biological target: Crotalus durissus terrificus (C.d.t.) venom; test: ELISA, C.d.t. venom coat, 1:25; remark: listed apart in the source
[4] = biological target: Crotalus durissus terrificus (C.d.t.) venom; test: ELISA, C.d.t. venom coat, 1:125
[5] = biological target: Crotalus durissus terrificus (C.d.t.) venom; test: ELISA, C.d.t. venom coat, 1:625
[6] = biological target: Crotalus durissus terrificus (C.d.t.) venom; test: ELISA, C.d.t. venom coat, 1:125; remark: listed apart in the source
[7] = biological target: Crotalus durissus terrificus (C.d.t.) venom; test: ELISA, C.d.t. venom coat, 1:625; remark: listed apart in the source
[8] = biological target: Crotalus durissus terrificus (C.d.t.) venom; test: ELISA, C.d.t. venom coat, 1:3125
[9] = biological target: Crotalus durissus terrificus (C.d.t.) venom; test: ELISA, C.d.t. venom coat, 1:3125; remark: listed apart in the source
[10] = biological target: Crotalus durissus terrificus (C.d.t.) venom; test: ELISA, C.d.t. venom coat, 1:62,500
[11] = biological target: Crotalus durissus terrificus (C.d.t.) venom; test: ELISA, C.d.t. venom coat, 1:312,500
[12] = biological target: Crotalus durissus terrificus (C.d.t.) venom; test: ELISA, C.d.t. venom coat, undiluted

**Q.** How did the ELISA absorbance [1] turn out when preimmune IgY (antibody) was run?
**A.** < 0 OD

**Q.** And the ELISA absorbance [2]?
**A.** 0.016 OD

**Q.** And the ELISA absorbance [3]?
**A.** 0 OD

**Q.** What about the ELISA absorbance [4] of the same substance?
**A.** < 0 OD

**Q.** And the ELISA absorbance [5]?
**A.** < 0 OD

**Q.** And the ELISA absorbance [6]?
**A.** 0.003 OD

**Q.** And the ELISA absorbance [7]?
**A.** 0 OD

**Q.** And the ELISA absorbance [8]?
**A.** < 0 OD

**Q.** What about the ELISA absorbance [9] of the same substance?
**A.** 0.002 OD

**Q.** What about the ELISA absorbance [10] of the same substance?
**A.** 0.001 OD

**Q.** What about the ELISA absorbance [11] of the same substance?
**A.** 0.01 OD

**Q.** And the ELISA absorbance [12]?
**A.** 0.003 OD
